Assay results reported in paper PMC2244645 (2007).

B1: QSTQ peptide (immobilized with added N-terminal alanine) (peptide)
chain: AQSTQ
B2: PTYF peptide (immobilized with added N-terminal alanine) (peptide)
chain: APTYF

Target: alpha-synuclein (Homo sapiens, UniProt P37840)
Experiment: SPR

Row | Binder | Kd
1 | B1 | 19 µM
2 | B2 | > 190 µM
